Values of other authors in article PMC4536614.

Target: C3d C3d (Homo sapiens) (UniProt P01024)
Sequence (P01024 1002-1303): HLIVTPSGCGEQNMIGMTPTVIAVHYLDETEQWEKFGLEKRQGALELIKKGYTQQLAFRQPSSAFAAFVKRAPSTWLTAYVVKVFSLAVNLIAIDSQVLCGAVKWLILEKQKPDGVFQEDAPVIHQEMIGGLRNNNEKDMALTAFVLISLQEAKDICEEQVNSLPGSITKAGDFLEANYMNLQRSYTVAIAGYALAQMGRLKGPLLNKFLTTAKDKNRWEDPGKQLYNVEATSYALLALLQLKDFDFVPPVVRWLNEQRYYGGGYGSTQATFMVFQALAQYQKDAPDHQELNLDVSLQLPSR

Sequence of complement receptor 2 (CR2) (P20023 21-971): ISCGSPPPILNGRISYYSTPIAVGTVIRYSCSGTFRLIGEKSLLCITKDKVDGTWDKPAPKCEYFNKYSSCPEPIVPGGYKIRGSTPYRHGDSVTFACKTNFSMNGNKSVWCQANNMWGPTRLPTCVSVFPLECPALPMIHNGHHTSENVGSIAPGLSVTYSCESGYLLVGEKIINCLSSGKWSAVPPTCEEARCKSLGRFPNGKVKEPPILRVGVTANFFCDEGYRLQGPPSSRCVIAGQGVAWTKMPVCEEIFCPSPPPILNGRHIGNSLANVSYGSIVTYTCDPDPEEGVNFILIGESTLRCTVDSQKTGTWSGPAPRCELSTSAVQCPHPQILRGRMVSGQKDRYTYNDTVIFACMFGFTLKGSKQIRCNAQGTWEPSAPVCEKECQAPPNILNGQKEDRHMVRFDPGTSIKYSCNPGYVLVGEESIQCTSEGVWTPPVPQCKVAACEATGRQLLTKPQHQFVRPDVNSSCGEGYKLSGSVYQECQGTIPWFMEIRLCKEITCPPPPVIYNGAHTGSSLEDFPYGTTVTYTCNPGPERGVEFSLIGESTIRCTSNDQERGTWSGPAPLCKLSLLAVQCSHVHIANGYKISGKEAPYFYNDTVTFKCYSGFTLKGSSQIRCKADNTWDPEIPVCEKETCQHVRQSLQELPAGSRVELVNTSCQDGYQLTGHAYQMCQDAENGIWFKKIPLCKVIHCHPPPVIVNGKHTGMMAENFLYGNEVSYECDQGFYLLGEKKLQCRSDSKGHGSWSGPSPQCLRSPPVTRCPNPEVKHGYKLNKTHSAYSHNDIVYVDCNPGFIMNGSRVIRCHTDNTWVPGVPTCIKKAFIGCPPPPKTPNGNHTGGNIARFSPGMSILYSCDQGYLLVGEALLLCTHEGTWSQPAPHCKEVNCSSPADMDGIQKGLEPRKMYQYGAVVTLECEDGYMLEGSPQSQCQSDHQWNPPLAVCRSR

In the case of “complement receptor 2 (CR2) (from UniProt P20023)”, the Kd is given as 500 nM.
